Data reported in PMC4510711.

Columns and labels:
[1] = molecular target: T1, RC3H1-N2 (RING+ROQ+CCCH Zn finger) (Homo sapiens, UniProt Q5TC82 2-452); assay: EMSA; EMSA: 20 mM Tris-HCl pH 7.5, 50 mM KCl, 5 mM MgCl2, 20 uM ZnSO4, 10% glycerol, 2 mM DTT, 0.05 mg/ml BSA, 5 ug/ml heparin; 50 fmol RNA in 20 ul, room temperature
T1 sequence: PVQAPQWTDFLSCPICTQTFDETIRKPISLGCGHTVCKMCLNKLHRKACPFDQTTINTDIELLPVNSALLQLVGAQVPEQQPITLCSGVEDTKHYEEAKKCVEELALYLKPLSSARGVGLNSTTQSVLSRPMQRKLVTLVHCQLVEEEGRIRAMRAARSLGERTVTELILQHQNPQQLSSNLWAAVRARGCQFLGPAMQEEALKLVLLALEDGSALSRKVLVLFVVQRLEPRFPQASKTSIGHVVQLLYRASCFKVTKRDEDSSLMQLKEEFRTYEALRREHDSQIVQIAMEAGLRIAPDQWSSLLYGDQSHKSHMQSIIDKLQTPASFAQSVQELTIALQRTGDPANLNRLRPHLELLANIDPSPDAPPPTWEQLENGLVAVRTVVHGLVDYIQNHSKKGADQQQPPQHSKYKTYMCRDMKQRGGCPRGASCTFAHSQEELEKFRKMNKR

[2] = molecular target: T1, RC3H1-N2 (RING+ROQ+CCCH Zn finger); assay: EMSA; higher affinity than the 21-nt hairpin; EMSA: 20 mM Tris-HCl pH 7.5, 50 mM KCl, 5 mM MgCl2, 20 uM ZnSO4, 10% glycerol, 2 mM DTT, 0.05 mg/ml BSA, 5 ug/ml heparin; 50 fmol RNA in 20 ul, room temperature
[3] = molecular target: T1, RC3H1-N2 (RING+ROQ+CCCH Zn finger); assay: EMSA; complex formation seemed independent of the Zn finger; EMSA: 20 mM Tris-HCl pH 7.5, 50 mM KCl, 5 mM MgCl2, 20 uM ZnSO4, 10% glycerol, 2 mM DTT, 0.05 mg/ml BSA, 5 ug/ml heparin; 50 fmol RNA in 20 ul, room temperature
RC3H1-N1 (RING+ROQ) = molecular target: T2, RC3H1-N1 (RING+ROQ) (Homo sapiens, UniProt Q5TC82 2-399); assay: EMSA; EMSA: 20 mM Tris-HCl pH 7.5, 50 mM KCl, 5 mM MgCl2, 20 uM ZnSO4, 10% glycerol, 2 mM DTT, 0.05 mg/ml BSA, 5 ug/ml heparin; 50 fmol RNA in 20 ul, room temperature
T2 sequence: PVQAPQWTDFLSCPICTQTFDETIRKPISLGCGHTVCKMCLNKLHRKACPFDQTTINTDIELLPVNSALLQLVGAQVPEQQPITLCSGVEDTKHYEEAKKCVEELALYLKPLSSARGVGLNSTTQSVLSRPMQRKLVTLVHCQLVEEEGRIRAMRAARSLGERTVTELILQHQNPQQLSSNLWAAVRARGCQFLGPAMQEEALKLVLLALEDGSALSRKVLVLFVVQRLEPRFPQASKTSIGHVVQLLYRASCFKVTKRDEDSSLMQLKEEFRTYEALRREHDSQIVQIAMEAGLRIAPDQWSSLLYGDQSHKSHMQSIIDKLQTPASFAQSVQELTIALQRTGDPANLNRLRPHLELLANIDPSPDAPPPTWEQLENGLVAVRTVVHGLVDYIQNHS

[4] = molecular target: T1, RC3H1-N2 (RING+ROQ+CCCH Zn finger); assay: EMSA; virtually unaffected vs WT; EMSA: 20 mM Tris-HCl pH 7.5, 50 mM KCl, 5 mM MgCl2, 20 uM ZnSO4, 10% glycerol, 2 mM DTT, 0.05 mg/ml BSA, 5 ug/ml heparin; 50 fmol RNA in 20 ul, room temperature

**Q.** Does CCCUUACAUUAUGUAUGAGGG (structured_RNA) [A20 (21 nt) stem-loop WT] bind [1]?
**A.** Result: binds

**Q.** Does AUAUAUAAUAUACCCUUACAUUAUGUAUGAGGGAUUU (structured_RNA) [A20 (37 nt) ARE-stem-loop] bind [2]?
**A.** Result: binds

**Q.** Does CCUCCCCCCCUGCCCCCCAGC (ssRNA) [Mut3 (21 nt) control] bind [1]?
**A.** Result: no binding

**Q.** What does the source list for AUUUCUGUGAAAU (structured_RNA) [ICOS (13 nt) CDE-like stem-loop]?
**A.** binding result [3]: binds; binding result (RC3H1-N1 (RING+ROQ)): binds

**Q.** Does CCCUUACAUAAUGUAUGAGGG (structured_RNA) [Mut1 (21 nt)] bind [4]?
**A.** Result: binds
